Results reported in patent US20110039770A1, “INHIBITORS OF PROTEIN KINASE C ISOFORMS AND USES THEREOF” (PHARMAGAP INC., priority 2005, published 2011).
Where a SMILES comes first, the peptide text is derived from it. [ ]: non-standard residue; d: D form.

Molecular target: PKC-δ (Homo sapiens, UniProt Q05655)
Experiment: Competitive binding assay using cell extracts (Western blot)
Parameters: cytoplasmic extracts from different cell lines expressing appropriate PKC isoforms; endogenous in cells; host or cells: H661, MDAMB231, LS180, T24; key: —: no detectable affinity; Low to very low affinity at 10X or 20X or both PRE concentrations in at least one cell line in the cell extract assay; Low affinity in purified isoform assay.; Moderate affinity at 10X or 20X or both PRE concentrations in at least one cell line in the cell extract assay.; High affinity at 10X or 20X or both PRE concentrations in at least one cell line in the cell extract assay; High affinity in purified isoform assay
Conditions: Cell extract; PRE 10X or 20X antibody concentration
Procedure: Binding efficiency and specificity of the peptides PRE 2, 3, 4, 5, 6, 7, 8, 9, 10, 11, 12 and 13 (see Table 4) was also tested using cytoplasmic extracts from different cell lines expressing appropriate PKC isoforms as described for Example 1. Briefly, the protein cytoplasmic extracts were separated by electrophoresis and transferred onto nitrocellulose membranes by standard Western blotting procedures. The bands on the Western blots were detected with matching primary antibodies and alkaline phosphatase conjugated secondary antibody. The bands were then scanned and the relative density measurements obtained.
This procedure to assess the binding characteristics of the PREs is based on competition binding of the PRE with the primary anti-isoform PKC specific antibodies. The lower the measured band density, the greater the binding of the PRE to the PKC isoform. The PREs were added at 10 and 20 times (10×, 20×) the primary antibody concentration, according to classical competition between antigenic peptide and primary antibody. The following cell lines (obtained from the ATCC) were used: H661—NCI human lung carcinoma NSCLC; MDAMB231—human highly invasive breast cancer cell line from pleural effusion; LS180—human colon adenocarcinoma; LnCAP—human prostate adenocarcinoma; CCD16Lu—human lung fibroblasts; Du145—human prostate carcinoma brain metastasis, and T24—human bladder carcinoma.
In these cases, the 20× band density figures relative to control and 10× values were reliable.

Chain of PKC-δ (Q05655 whole entry): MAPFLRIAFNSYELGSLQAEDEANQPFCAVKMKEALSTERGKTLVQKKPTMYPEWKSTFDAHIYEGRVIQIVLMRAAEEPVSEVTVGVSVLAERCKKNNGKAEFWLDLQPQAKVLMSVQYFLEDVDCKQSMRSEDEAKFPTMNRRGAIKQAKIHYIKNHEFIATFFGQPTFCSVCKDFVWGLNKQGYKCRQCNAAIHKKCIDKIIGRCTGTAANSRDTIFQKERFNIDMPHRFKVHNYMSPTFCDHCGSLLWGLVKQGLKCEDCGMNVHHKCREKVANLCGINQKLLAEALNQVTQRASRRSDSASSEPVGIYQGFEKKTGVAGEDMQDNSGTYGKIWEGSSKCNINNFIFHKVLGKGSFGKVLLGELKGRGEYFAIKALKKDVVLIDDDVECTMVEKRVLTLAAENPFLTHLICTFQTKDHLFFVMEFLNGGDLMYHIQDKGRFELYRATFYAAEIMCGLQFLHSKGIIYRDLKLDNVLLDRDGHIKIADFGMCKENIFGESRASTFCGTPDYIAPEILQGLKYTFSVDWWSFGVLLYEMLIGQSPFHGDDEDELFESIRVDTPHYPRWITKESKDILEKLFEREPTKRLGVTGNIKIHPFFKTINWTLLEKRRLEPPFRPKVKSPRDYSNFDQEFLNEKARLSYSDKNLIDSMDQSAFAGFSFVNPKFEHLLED

Affinity for PKC isoform δ	Compound
L	Ac-ISIGILQNADK-NH2 (not fully specified; printed as Ac-ISIGILQNADK-NH2) [PRE 7]
—	RRKKGGKDFVVKR [PRE 1]
—	Ac-RDAQNLI-NH2 [PRE 13]
H	Ac-ISIGILNQADK-NH2 [PRE 10]
—	CC[C@H](C)[C@H](NC(=O)[C@H](CO)NC(=O)[C@@H](NC(=O)CNC(=O)[C@@H](NC(=O)[C@H](CC(C)C)NC(=O)[C@H](CC(N)=O)NC(=O)[C@H](CCC(N)=O)NC(=O)[C@H](C)NC(=O)[C@H](CC(=O)O)NC(=O)[C@H](CCCCN)NC(C)=O)[C@@H](C)CC)[C@@H](C)CC)C(N)=O [PRE 4, Ac-KDAQNLIGISI-NH2] (Ac-KDAQNLIGISI-NH2)
H	CC[C@H](C)[C@H](NC(=O)[C@H](CO)NC(=O)[C@@H](NC(=O)CNC(=O)[C@@H](NC(=O)[C@H](CC(C)C)NC(=O)[C@H](CC(N)=O)NC(=O)[C@H](CCC(N)=O)NC(=O)[C@H](C)NC(=O)[C@H](CC(=O)O)NC(=O)CNC(=O)CNC(=O)[C@H](CCCCN)NC(=O)[C@@H](NC(=O)[C@H](CCC(=O)O)NC(=O)[C@H](CCC(N)=O)NC(=O)[C@@H](NC(=O)CNC(=O)[C@H](CCCCN)NC(=O)[C@H](C)NC(C)=O)[C@@H](C)CC)C(C)C)[C@@H](C)CC)[C@@H](C)CC)C(N)=O [PRE 3] (Ac-AKGIQEVKGGDAQNLIGISI-NH2)
—	CC[C@H](C)[C@H](NC(=O)[C@H](CO)NC(=O)[C@@H](NC(=O)CNC(=O)[C@@H](NC(=O)[C@H](CC(C)C)NC(=O)[C@H](CC(N)=O)NC(=O)[C@H](CCC(N)=O)NC(=O)[C@H](C)NC(=O)[C@H](CC(=O)O)NC(=O)[C@H](CCCCN)NC(=O)CNC(=O)CNC(=O)[C@H](CCCCN)NC(=O)[C@@H](NC(=O)[C@H](CCC(=O)O)NC(=O)[C@H](CCC(N)=O)NC(=O)[C@@H](NC(=O)CNC(=O)[C@H](CCCCN)NC(=O)[C@H](C)NC(C)=O)[C@@H](C)CC)C(C)C)[C@@H](C)CC)[C@@H](C)CC)C(N)=O [PRE 5] (Ac-AKGIQEVKGGKDAQNLIGISI-NH2)
H	Ac-isigilqnadk-NH2 (Ac-[dI][dS][dI]G[dI][dL][dQ][dN][dA][dD][dK]-NH2; SMILES CC[C@@H](C)[C@@H](NC(C)=O)C(=O)N[C@H](CO)C(=O)N[C@@H](C(=O)NCC(=O)N[C@@H](C(=O)N[C@H](CC(C)C)C(=O)N[C@H](CCC(N)=O)C(=O)N[C@H](CC(N)=O)C(=O)N[C@H](C)C(=O)N[C@H](CC(=O)O)C(=O)N[C@H](CCCCN)C(N)=O)[C@H](C)CC)[C@H](C)CC) [PRE 9]
L	ILEDKGGDAQNLIGISI [PRE 8]
—	Ac-RDAQNLIGISI-NH2 [PRE 11]
M/H	Ac-KDANQLIGISI-NH2 [PRE 6]
—	Ac-KDAQNLI-NH2 [PRE 12]
